From patent US20160264649A1

Legend:
Test in all cases: cell-based or functional assay
[1] = molecular target: HIV-1 92RW008 Env (HIV-1)
[2] = molecular target: HIV-1 92TH021 Env (HIV-1)
[3] = molecular target: HIV-1 92UG031 Env (HIV-1)
[4] = molecular target: HIV-1 92UG037 Env (HIV-1)
[5] = molecular target: HIV-1 92WR009 Env (HIV-1)
[6] = molecular target: HIV-1 92WR020 Env (HIV-1)
[7] = molecular target: HIV-1 92WR021 Env (HIV-1)
[8] = molecular target: HIV-1 92WR024 Env (HIV-1)
[9] = molecular target: HIV-1 92WR026 Env (HIV-1)
[10] = molecular target: HIV-1 93UG077 Env (HIV-1)
[11] = molecular target: HIV-1 93WR029 Env (HIV-1)
[12] = molecular target: HIV-1 94KE105 Env (HIV-1)
[13] = molecular target: HIV-1 94UG103 Env (HIV-1)
HIV-1 CMU02 Env (HIV-1) = molecular target: HIV-1 CMU02 Env (HIV-1)
[14] = molecular target: HIV-1 MGRM-A-001 Env (HIV-1)
[15] = molecular target: HIV-1 MGRM-A-002 Env (HIV-1)
[16] = molecular target: HIV-1 MGRM-A-003 Env (HIV-1)
[17] = molecular target: HIV-1 MGRM-A-004 Env (HIV-1)
[18] = molecular target: HIV-1 MGRM-A-005 Env (HIV-1)
[19] = molecular target: HIV-1 MGRM-A-006 Env (HIV-1)
[20] = molecular target: HIV-1 MGRM-A-007 Env (HIV-1)
[21] = molecular target: HIV-1 MGRM-A-008 Env (HIV-1)
[22] = molecular target: HIV-1 MGRM-A-009 Env (HIV-1)
[23] = molecular target: HIV-1 MGRM-A-010 Env (HIV-1)
[24] = molecular target: HIV-1 MGRM-A-011 Env (HIV-1)
[25] = molecular target: HIV-1 MGRM-A-012 Env (HIV-1)
[26] = molecular target: HIV-1 MGRM-A-013 Env (HIV-1)
[27] = molecular target: HIV-1 MGRM-A-014 Env (HIV-1)
[28] = molecular target: HIV-1 MGRM-AE-001 Env (HIV-1)
[29] = molecular target: HIV-1 MGRM-AE-002 Env (HIV-1)
[30] = molecular target: HIV-1 MGRM-AE-003 Env (HIV-1)
[31] = molecular target: HIV-1 MGRM-AE-004 Env (HIV-1)
[32] = molecular target: HIV-1 MGRM-AE-005 Env (HIV-1)
[33] = molecular target: HIV-1 MGRM-AE-006 Env (HIV-1)
[34] = molecular target: HIV-1 MGRM-AE-007 Env (HIV-1)
[35] = molecular target: HIV-1 MGRM-AE-008 Env (HIV-1)
[36] = molecular target: HIV-1 MGRM-AG-001 Env (HIV-1)
[37] = molecular target: HIV-1 MGRM-AG-002 Env (HIV-1)
[38] = molecular target: HIV-1 MGRM-AG-003 Env (HIV-1)
[39] = molecular target: HIV-1 MGRM-AG-005 Env (HIV-1)
[40] = molecular target: HIV-1 MGRM-AG-006 Env (HIV-1)
[41] = molecular target: HIV-1 MGRM-AG-008 Env (HIV-1)
[42] = molecular target: HIV-1 MGRM-AG-009 Env (HIV-1)
[43] = molecular target: HIV-1 MGRM-AG-011 Env (HIV-1)
[44] = molecular target: HIV-1 MGRM-AG-012 Env (HIV-1)
[45] = molecular target: HIV-1 MGRM-AG-013 Env (HIV-1)
HIV-1 VLGCA1 Env (HIV-1) = molecular target: HIV-1 VLGCA1 Env (HIV-1)

5123_A06 (PGT-125) (antibody)
IC50 [1]: 0.004 µg/mL
IC50 [2]: 0.006 µg/mL
IC50 [3]: > 50 µg/mL
IC50 [4]: 0.005 µg/mL
IC50 [5]: 0.144 µg/mL
IC50 [6]: 0.004 µg/mL
IC50 [7]: 0.005 µg/mL
IC50 [8]: 35.5 µg/mL
IC50 [9]: 0.007 µg/mL
IC50 [10]: 0.012 µg/mL
IC50 [11]: > 50 µg/mL
IC50 [12]: 0.004 µg/mL
IC50 [13]: 0.008 µg/mL
IC50 (HIV-1 CMU02 Env (HIV-1)): > 50 µg/mL
IC50 [14]: 12.4 µg/mL
IC50 [15]: 0.013 µg/mL
IC50 [16]: > 50 µg/mL
IC50 [17]: > 50 µg/mL
IC50 [18]: > 50 µg/mL
IC50 [19]: > 50 µg/mL
IC50 [20]: > 50 µg/mL
IC50 [21]: > 50 µg/mL
IC50 [22]: 0.009 µg/mL
IC50 [23]: 0.004 µg/mL
IC50 [24]: > 50 µg/mL
IC50 [25]: 0.177 µg/mL
IC50 [26]: 0.014 µg/mL
IC50 [27]: 13.9 µg/mL
IC50 [28]: 2.95 µg/mL
IC50 [29]: > 50 µg/mL
IC50 [30]: 0.092 µg/mL
IC50 [31]: > 50 µg/mL
IC50 [32]: 0.01 µg/mL
IC50 [33]: 0.009 µg/mL
IC50 [34]: 0.876 µg/mL
IC50 [35]: > 50 µg/mL
IC50 [36]: > 50 µg/mL
IC50 [37]: > 50 µg/mL
IC50 [38]: > 50 µg/mL
IC50 [39]: > 50 µg/mL
IC50 [40]: 0.008 µg/mL
IC50 [41]: > 50 µg/mL
IC50 [42]: 0.026 µg/mL
IC50 [43]: > 50 µg/mL
IC50 [44]: > 50 µg/mL
IC50 [45]: 0.004 µg/mL
IC50 (HIV-1 VLGCA1 Env (HIV-1)): 0.078 µg/mL

5141_B17 (PGT-126) (antibody)
IC50 [1]: 0.008 µg/mL
IC50 [2]: 0.197 µg/mL
IC50 [3]: > 50 µg/mL
IC50 [4]: 0.011 µg/mL
IC50 [5]: > 50 µg/mL
IC50 [6]: 0.006 µg/mL
IC50 [7]: 0.006 µg/mL
IC50 [8]: 42 µg/mL
IC50 [9]: 0.008 µg/mL
IC50 [10]: 0.02 µg/mL
IC50 [11]: > 50 µg/mL
IC50 [12]: 0.006 µg/mL
IC50 [13]: 0.008 µg/mL
IC50 (HIV-1 CMU02 Env (HIV-1)): > 50 µg/mL
IC50 [14]: > 50 µg/mL
IC50 [15]: 0.015 µg/mL
IC50 [16]: > 50 µg/mL
IC50 [17]: > 50 µg/mL
IC50 [18]: > 50 µg/mL
IC50 [19]: > 50 µg/mL
IC50 [20]: > 50 µg/mL
IC50 [21]: > 50 µg/mL
IC50 [22]: 0.004 µg/mL
IC50 [23]: 0.002 µg/mL
IC50 [24]: > 50 µg/mL
IC50 [25]: 0.097 µg/mL
IC50 [26]: 0.006 µg/mL
IC50 [27]: 0.01 µg/mL
IC50 [28]: 9.68 µg/mL
IC50 [29]: > 50 µg/mL
IC50 [30]: > 50 µg/mL
IC50 [31]: > 50 µg/mL
IC50 [32]: 0.324 µg/mL
IC50 [33]: 17.3 µg/mL
IC50 [34]: > 50 µg/mL
IC50 [35]: > 50 µg/mL
IC50 [36]: > 50 µg/mL
IC50 [37]: > 50 µg/mL
IC50 [38]: > 50 µg/mL
IC50 [39]: 1.21 µg/mL
IC50 [40]: 0.01 µg/mL
IC50 [41]: > 50 µg/mL
IC50 [42]: 0.03 µg/mL
IC50 [43]: 24.5 µg/mL
IC50 [44]: > 50 µg/mL
IC50 [45]: 0.008 µg/mL
IC50 (HIV-1 VLGCA1 Env (HIV-1)): > 50 µg/mL

5145_B14 (PGT-127) (antibody)
IC50 [1]: 0.012 µg/mL
IC50 [2]: > 50 µg/mL
IC50 [3]: > 50 µg/mL
IC50 [4]: 0.014 µg/mL
IC50 [5]: > 50 µg/mL
IC50 [6]: 0.01 µg/mL
IC50 [7]: 0.011 µg/mL
IC50 [8]: > 50 µg/mL
IC50 [9]: 0.024 µg/mL
IC50 [10]: 0.055 µg/mL
IC50 [11]: > 50 µg/mL
IC50 [12]: 0.023 µg/mL
IC50 [13]: 0.017 µg/mL
IC50 (HIV-1 CMU02 Env (HIV-1)): > 50 µg/mL
IC50 [14]: > 50 µg/mL
IC50 [15]: 9.42 µg/mL
IC50 [16]: > 50 µg/mL
IC50 [17]: > 50 µg/mL
IC50 [18]: > 50 µg/mL
IC50 [19]: > 50 µg/mL
IC50 [20]: > 50 µg/mL
IC50 [21]: > 50 µg/mL
IC50 [22]: 0.013 µg/mL
IC50 [23]: 0.017 µg/mL
IC50 [24]: > 50 µg/mL
IC50 [25]: 0.105 µg/mL
IC50 [26]: 0.029 µg/mL
IC50 [27]: 0.24 µg/mL
IC50 [28]: > 50 µg/mL
IC50 [29]: > 50 µg/mL
IC50 [30]: > 50 µg/mL
IC50 [31]: > 50 µg/mL
IC50 [32]: > 50 µg/mL
IC50 [33]: > 50 µg/mL
IC50 [34]: > 50 µg/mL
IC50 [35]: > 50 µg/mL
IC50 [36]: > 50 µg/mL
IC50 [37]: > 50 µg/mL
IC50 [38]: > 50 µg/mL
IC50 [39]: > 50 µg/mL
IC50 [40]: 0.021 µg/mL
IC50 [41]: > 50 µg/mL
IC50 [42]: 0.059 µg/mL
IC50 [43]: > 50 µg/mL
IC50 [44]: > 50 µg/mL
IC50 [45]: 0.018 µg/mL
IC50 (HIV-1 VLGCA1 Env (HIV-1)): > 50 µg/mL
